Results published in patent US20210139581A1 (Alector, published 2021).
Where two headings read alike, the source gives them in different places.

Legend:
[1] = target: T1, human CD33 on primary human monocyte-derived dendritic cells (human, UniProt P20138 18-364); assay: cell-based or functional assay
human CD33 [2] = target: T2, human CD33 (human, UniProt P20138 18-259, limits assumed); assay: BLI (ForteBio), Fab 100 nM on immobilized CD33
T2 construct: Human CD33 immobilized on the BLI sensor tip or the BIAcore C1 chip; also called Siglec-3
T2 sequence (P20138 18-259 limits assumed): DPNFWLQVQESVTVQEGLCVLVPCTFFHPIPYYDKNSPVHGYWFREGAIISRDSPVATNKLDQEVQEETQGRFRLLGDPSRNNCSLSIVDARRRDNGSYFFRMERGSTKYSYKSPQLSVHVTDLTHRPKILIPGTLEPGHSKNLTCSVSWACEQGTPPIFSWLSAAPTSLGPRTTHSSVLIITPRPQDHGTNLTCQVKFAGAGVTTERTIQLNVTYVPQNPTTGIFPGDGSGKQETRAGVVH
Protocol: The affinities (KD) of the humanized antibodies for human CD33 were measured for each antibody by BioLayer Interferometry in a ForteBio assay according to standard techniques (Estep et al. (2013) MAbs 5(2): 270-8). […] The assay was carried out at room temperature.
The affinities of AB-H14 and its affinity-matured variants (Table 15) and AB-H63 and its affinity-matured variants (Table 16), for human CD33 were measured by Fortebio assay according to the method described in Example 1 above.

[3] = target: T1, human CD33 on primary human …; assay: cell-based or functional assay; remark: listed apart in the source
human CD33 [4] = target: T2, human CD33; assay: SPR (BIAcore), Fab over CD33 on C1 chip
Protocol: The affinity parameters for 10 of the 88 humanized antibodies (AB-H1, AB-H3, AB-H6, AB-H11, AB-H22, AB-H24, AB-H26, AB-H63, AB-H64, and AB-H71) were measured in a separate experiment by a more sensitive technique, surface plasmon resonance (BIAcore), and compared to Chimeric Ab and Chimeric Ab #2. BIAcore measurements were performed as follows: human CD33 was immobilized on the surface of a C1 chip, and Fabs were injected for 300 s to monitor association, followed by a 900 s flow in running buffer to monitor dissociation. The Fabs were measured at 5 concentrations: a high concentration of 27 nM and 3-fold serial dilutions.

[5] = target: T1, human CD33 on primary human …; assay: cell-based or functional assay; remark: listed apart in the source

T1 sequence (P20138 18-364): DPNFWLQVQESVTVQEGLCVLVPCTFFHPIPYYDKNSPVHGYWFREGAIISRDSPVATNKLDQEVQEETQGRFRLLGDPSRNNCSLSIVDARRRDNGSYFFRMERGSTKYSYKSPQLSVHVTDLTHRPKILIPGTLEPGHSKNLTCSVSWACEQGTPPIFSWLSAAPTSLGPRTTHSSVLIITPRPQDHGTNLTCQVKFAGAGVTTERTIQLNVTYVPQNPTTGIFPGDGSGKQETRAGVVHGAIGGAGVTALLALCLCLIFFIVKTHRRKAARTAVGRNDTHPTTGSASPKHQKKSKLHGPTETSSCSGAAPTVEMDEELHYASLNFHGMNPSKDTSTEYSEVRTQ

Row | Binder | Maximal Downregulation (% CD33 remaining) [1] [%] | Receptor downregulation (EC50) [1] [nM] | Fold affinity improvement over parental Ab (AB-H14) (human CD33 [2]) [fold] | Kd (human CD33 [2]) [nM] | koff (human CD33 [2]) [s⁻¹] | kon (human CD33 [2]) [M⁻¹ s⁻¹] | Maximal Downregulation (% CD33 remaining) [3] [%] | Receptor downregulation (EC50) [3] [nM] | Fold Change to Chimeric Ab (human CD33 [4]) [fold] | Kd (human CD33 [4]) [nM] | koff (human CD33 [4]) [s⁻¹] | kon (human CD33 [4]) [M⁻¹ s⁻¹] | Maximal Downregulation (% CD33 remaining) [5] [%] | Receptor downregulation (EC50) [5] [nM] | Fold affinity improvement over parental Ab (AB-H63) (human CD33 [2]) [fold]
1 | AB-14.1 (antibody, V domains shown) VH: QVQLVQSGAEVKKPGASVKVSCKASGATFTDYNFHWVRQAPGQGLEWIGFIYPSNGITGYAQDFQGRVTMTVDTSTSTVYMELSSLRSEDTAVYYCARSDVDYFDYWGQGTLVTVSS VL: DIQMTQSPSSLSASVGDRVTITCRASQSVSTSTYSYMHWYQQKPGKAPKLLIKYASNLESGVPSRFSGSGSGTDFTLTISSLQPEDFATYYCQHSWEIPLTFGQGTKLEIK | 18.6 | 0.0927 | 9.73 | ≤ 0.299 | ≤ 0.0002 | 670000 | – | – | – | – | – | – | – | – | –
2 | AB-H3 (antibody, V domains shown, Humanized variant of murine 2F5.1) VH: QVQLVQSGAEVKKPGASVKISCKASGYTFTDYNLHWVRQAPGQGLEWIGFIYPSNGITGYAQKFQGRATLTVDTSTSTAYMELSSLRSEDTAVYYCARSTVDYFDYWGQGTLLTVSS VL: DIQMTQSPSSLSASVGDRVTITCRASQSVSTSTYSYMHWYQQKPGKAPKLLIYYASNLESGVPSRFSGSGSGTDFTLTISSLQPEDFATYYCQHSWEIPLTFGQGTKLEIK | – | – | – | – | – | – | 21.2 | 0.0933 | 1.43 | 1.13 | 0.0014 | 1.23e+06 | – | – | –
3 | AB-14.2 (antibody, V domains shown) VH: QVQLVQSGAEVKKPGASVKVSCKASGATFTDYNYHWVRQAPGQGLEWIGFIYPSNGITGYAQKFQDRVTMTVDTSTSTVYMELSSLRSEDTAVYYCARSFVDYFDYWGQGTLVTVSS VL: DIQMTQSPSSLSASVGDRVTITCRASQDVSTSTYSYMHWYQQKPGKAPKLLIKYASNLESGVPSRFSGSGSGTDFTLTISSLQPEDFATYYCQHSWEIPLTFGQGTKLEIK | 23.8 | 0.055 | 14.4 | 0.202 | 0.0002 | 991000 | – | – | – | – | – | – | – | – | –
4 | AB-H11 (antibody, V domains shown, Humanized variant of murine 2F5.1) VH: QVQLVQSGAEVKKPGASVKVSCKASGYTFTDYNLHWVRQAPGQSLEWIGFIYPSNGITGYSQKFQGKATLTVDTSASTAYMELSSLRSEDTAVYYCARSTVDYFDYWGQGTTVTVSS VL: DIQMTQSPSSLSASVGDRVTITCRASQSVSTSTYSYMHWYQQKPGKAPKLLIYYASNLESGVPSRFSGSGSGTDFTLTISSLQPEDFATYYCQHSWEIPLTFGQGTKLEIK | – | – | – | – | – | – | 23.3 | 0.0772 | 1.22 | 1.33 | 0.00162 | 1.22e+06 | – | – | –
5 | AB-14.3 (antibody, V domains shown) VH: QVQLVQSGAEVKKPGASVKVSCKASGYTFTDYNYHWVRQAPGQGLEWIGFIYPSNGITGSAQKFQGRVTMTVDTSTSTVYMELSSLRSEDTAVYYCARSDVDYFDYWGQGTLVTVSS VL: DIQMTQSPSSLSASVGDRVTITCRASQDVSTSTYSYMHWYQQKPGKAPKLLIKYVSNLESGVPSRFSGSGSGTDFTLTISSLQPEDFATYYCQHSWEIPLTFGQGTKLEIK | 25.4 | 0.043 | 12.3 | 0.236 | 0.0002 | 847000 | – | – | – | – | – | – | – | – | –
6 | AB-H22 (antibody, V domains shown, Humanized variant of murine 2F5.1; also called AB-22) VH: QVQLVQSGAEVKKPGASVKISCKASGYTFTDYNLHWVRQAPGQRLEWIGFIYPSNGITGYNQKFKNKATLTVDTSASTAYMELSSLRSEDTAVYYCARSTVDYFDYWGQGTTVTVSS VL: DIQMTQSPSSLSASVGDRVTITCRASQSVSTSTYSYMHWYQQKPGKAPKLLIKYASNLESGVPSRFSGSGSGTDFTLTISSLQPEDFATYYCQHSWEIPLTFGQGTKLEIK | – | – | – | – | – | – | 22.6 | 0.0901 | 0.62 | 2.63 | 0.00182 | 690000 | – | – | –
7 | AB-H26 (antibody, V domains shown, Humanized variant of murine 2F5.1; also called AB-26) VH: QVQLVQSGAEVKKPGASVKVSCKASGYTFTDYNLHWVRQAPGQRLEWIGFIYPSNGITGYSQKFQGRATLTVDTSASTAYMELSSLRSEDTAVYYCARSTVDYFDYWGQGTTVTVSS VL: DIQMTQSPSSLSASVGDRVTITCRASQSVSTSTYSYMHWYQQKPGKAPKLLIKYASNLESGVPSRFSGSGSGTDFTLTISSLQPEDFATYYCQHSWEIPLTFGQGTKLEIK | – | – | – | – | – | – | 21.9 | 0.0519 | 0.28 | 5.86 | 0.00234 | 400000 | – | – | –

Now from value to binder:

Row | Maximal Downregulation (% CD33 remaining) [1] [%] | Receptor downregulation (EC50) [1] [nM] | Fold affinity improvement over parental Ab (AB-H14) (human CD33 [2]) [fold] | Kd (human CD33 [2]) [nM] | koff (human CD33 [2]) [s⁻¹] | kon (human CD33 [2]) [M⁻¹ s⁻¹] | Maximal Downregulation (% CD33 remaining) [3] [%] | Receptor downregulation (EC50) [3] [nM] | Fold Change to Chimeric Ab (human CD33 [4]) [fold] | Kd (human CD33 [4]) [nM] | koff (human CD33 [4]) [s⁻¹] | kon (human CD33 [4]) [M⁻¹ s⁻¹] | Maximal Downregulation (% CD33 remaining) [5] [%] | Receptor downregulation (EC50) [5] [nM] | Fold affinity improvement over parental Ab (AB-H63) (human CD33 [2]) [fold] | Binder
8 | – | – | – | – | – | – | 25 | 0.127 | 1.03 | 1.58 | 0.00186 | 1.18e+06 | – | – | – | AB-H1 (antibody, V domains shown, Humanized variant of murine 2F5.1) VH: QVQLVQSGAEVKKPGASVKVSCKASGYTFTDYNLHWVRQAPGQGLEWMGFIYPSNGITGYAQKFQGRVTMTRDTSTSTVYMELSSLRSEDTAVYYCARSTVDYFDYWGQGTLVTVSS VL: DIQMTQSPSSLSASVGDRVTITCRASQSVSTSTYSYMHWYQQKPGKAPKLLIYYASNLESGVPSRFSGSGSGTDFTLTISSLQPEDFATYYCQHSWEIPLTFGQGTKLEIK
9 | – | – | – | – | – | – | 25.8 | 0.0412 | 0.87 | 1.88 | 0.00351 | 1.87e+06 | – | – | – | AB-H71 (antibody, V domains shown, Humanized variant of murine 2F5.1; also called AB-71) VH: QVQLVQSGAELKKPGASVKVSCKASGYTFTDYNLHWVRQAPGQRLEWIGFIYPSNGITGYSQKFQGKATLTVDTSASTAYMELSSLRSEDTAVYYCARSTVDYFDYWGQGTTVTVSS VL: DIVLTQSPDSLAVSLGERATINCRASQSVSTSTYSYMHWYQQKPGQPPKLLIKYASNLESGVPDRFSGSGSGTDFTLTISSLQAEDVAVYYCQHSWEIPLTFGQGTKLEIK
10 | – | – | – | – | – | – | 22.2 | 0.0725 | 0.27 | 6.02 | 0.00228 | 379000 | – | – | – | AB-H24 (antibody, V domains shown, Humanized variant of murine 2F5.1; also called AB-24) VH: QVQLVQSGAEVKKPGASVKISCKASGYTFTDYNLHWVRQAPGQRLEWIGFIYPSNGITGYSQKFQGKATLTVDTSASTAYMELSSLRSEDTAVYYCARSTVDYFDYWGQGTTVTVSS VL: DIQMTQSPSSLSASVGDRVTITCRASQSVSTSTYSYMHWYQQKPGKAPKLLIKYASNLESGVPSRFSGSGSGTDFTLTISSLQPEDFATYYCQHSWEIPLTFGQGTKLEIK
11 | – | – | – | 0.613 | – | – | – | – | – | – | – | – | 26.8 | 0.0629 | 4.44 | AB-63.18 (antibody, V domains shown) VH: QVQLVQSGAEVKKPGSSVKVSCKASGYTHTDYNLHWVRQAPGQGLEWIGFIYPSNGITGYAQKFQGRVTMTVDTSTSTVYMELSSLRSEDTAVYYCARSDVDYFDYWGQGTLVTVSS VL: DIVLTQSPDSLAVSLGERATINCRASQSVSTSTYSYMHWYQQKPGQPPKLLIKYESNLESGVPDRFSGSGSGTDFTLTISSLQAEDVAVYYCQHSWEIPLTFGQGTKLEIK
12 | – | – | – | – | – | – | 20.6 | 0.169 | 1.18 | 1.37 | 0.00151 | 1.1e+06 | – | – | – | AB-H6 (antibody, V domains shown, Humanized variant of murine 2F5.1) VH: QVQLVQSGAEVKKPGASVKVSCKASGYTFTDYNLHWVRQAPGQGLEWMGFIYPSNGITGYAQKFQGRVTMTVDTSTSTAYMELSSLRSEDTAVYYCARSTVDYFDYWGQGTTVTVSS VL: DIQMTQSPSSLSASVGDRVTITCRASQSVSTSTYSYMHWYQQKPGKAPKLLIYYASNLESGVPSRFSGSGSGTDFTLTISSLQPEDFATYYCQHSWEIPLTFGQGTKLEIK
13 | – | – | – | – | – | – | – | – | – | – | – | – | 27.2 | 0.0522 | – | AB-63.17 (antibody, V domains shown) VH: QVQLVQSGAEVKKPGASVKVSCKASGYTFTDYNYHWVRQAPGQGLEWIGFIYPSNGITGYAQKFQGRVTMTVDTSTSTVYMELSSLRSEDTAVYYCARSDVDYFDYWGQGTLVTVSS VL: DIVLTQSPDSLAVSLGERATINCRGSQSVSTSTYSYMHWYQQKPGQPPKLLIKYESNLESGVPDRFSGSGSGTDFTLTISSLQAEDVAVYYCQHSWEIPLTFGQGTKLEIK
14 | – | – | – | – | – | – | – | – | – | – | – | – | 23.4 | 0.0293 | – | AB-63.16 (antibody, V domains shown) VH: QVQLVQSGAEVKKPGASVKVSCKASGYTFTDYNYHWVRQAPGQGLEWIGFIYPSNGITGYAQKFQGRVTMTVDTSTSTVYMELSSLRSEDTAVYYCARSDVDYFDYWGQGTLVTVSS VL: DIVLTQSPDSLAVSLGERATINCRASQSVHTSTYSYMHWYQQKPGQPPKLLIKYASNLESGVPDRFSGSGSGTDFTLTISSLQAEDVAVYYCQHSWEIPLTFGQGTKLEIK
